Source: US6492123

What was measured:
hen egg lysozyme (hen) [1] = biological target: hen egg lysozyme (hen) (UniProt P00698); test: BIAcore, HEL coated chip
hen egg lysozyme (hen) [2] = biological target: hen egg lysozyme (hen) (UniProt P00698); test: phage ELISA, 50 µl phage supernatant, anti-M13 detection; background 0.1

Sequence of UniProt P00698 (P00698 19-147 limits assumed): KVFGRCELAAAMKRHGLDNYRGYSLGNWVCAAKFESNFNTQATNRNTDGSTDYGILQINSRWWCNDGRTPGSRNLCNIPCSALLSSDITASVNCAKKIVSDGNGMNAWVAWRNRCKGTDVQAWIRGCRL

“construct VI bispecific NQ11/D1.3 diabody, 5-residue linkers (bispecific antibody)” was tested, and the koff (hen egg lysozyme (hen) [1]) was 0.0022 s⁻¹.

“NQ11/D1.3/0 bispecific diabody displayed on phage (pHEN1) (bispecific antibody)” showed an absorbance signal (hen egg lysozyme (hen) [2]) of 2.8.

Substance chimaeric FabD1.3 has a koff (hen egg lysozyme (hen) [1]) of 0.003 s⁻¹.
